# According to the supplement of paper PMC9112550, “Optimization of the antimicrobial peptide Bac7 by deep mutational scanning” (BMC Biology, 2022):
# Tested on: Escherichia coli TOP10
# Test: shrunken log2 fold change of peptide-encoding DNA abundance (4.5 h post-induction vs induction); higher = less antimicrobial activity (less host growth inhibition)
# Conditions: time post-induction: 4.5 h; library: site-saturation at positions 5, 18, 19, 20
# 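Note: peptides expressed intracellularly from a pBAD plasmid library in pooled LB shake-flask culture, induced with 0.3% L-arabinose, DNA abundance read by NGS, three biological replicates, DESeq2 with apeglm shrinkage.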
row,Sequence,shrunken log2 fold change
1,RRIRLRPPRLPRPRPRPVQSPRP,-0.031
2,RRIRLRPPRLPRPRPRPVRIPRP,0.115
3,RRIRLRPPRLPRPRPRPVSVPRP,-0.118
4,RRIRLRPPRLPRPRPRPVTEPRP,0.0237
5,RRIRLRPPRLPRPRPRPVVMPRP,-0.282
6,RRIRLRPPRLPRPRPRPVWFPRP,0.00279
7,RRIRLRPPRLPRPRPRPVYHPRP,-0.856
8,RRIRLRPPRLPRPRPRPVYRPRP,-0.548
9,RRIRLRPPRLPRPRPRPWAFPRP,0.00977
10,RRIRLRPPRLPRPRPRPWCLPRP,-0.317
11,RRIRLRPPRLPRPRPRPWCQPRP,-0.0199
12,RRIRLRPPRLPRPRPRPWCVPRP,-0.35
13,RRIRLRPPRLPRPRPRPWDDPRP,-0.208
14,RRIRLRPPRLPRPRPRPWDGPRP,-0.153
15,RRIRLRPPRLPRPRPRPWETPRP,0.0162
16,RRIRLRPPRLPRPRPRPWFGPRP,-0.149
17,RRIRLRPPRLPRPRPRPWGSPRP,0.103
18,RRIRLRPPRLPRPRPRPWHMPRP,0.041
19,RRIRLRPPRLPRPRPRPWHQPRP,0.0225
20,RRIRLRPPRLPRPRPRPWIMPRP,-0.224
21,RRIRLRPPRLPRPRPRPWLSPRP,-0.0106
22,RRIRLRPPRLPRPRPRPWMKPRP,-0.249
23,RRIRLRPPRLPRPRPRPWMQPRP,0.0547
24,RRIRLRPPRLPRPRPRPWMSPRP,-0.55
25,RRIRLRPPRLPRPRPRPWMVPRP,-0.263

row,Sequence,shrunken log2 fold change
1,RRIRLRPPRLPRPRPRPWPWPRP,0.0352
2,RRIRLRPPRLPRPRPRPWPYPRP,-0.127
3,RRIRLRPPRLPRPRPRPWQRPRP,-0.161
4,RRIRLRPPRLPRPRPRPWRKPRP,0.125
5,RRIRLRPPRLPRPRPRPWRLPRP,0.0799
6,RRIRLRPPRLPRPRPRPWRPPRP,0.105
7,RRIRLRPPRLPRPRPRPWRWPRP,0.0385
8,RRIRLRPPRLPRPRPRPWTSPRP,-0.384
9,RRIRLRPPRLPRPRPRPWVDPRP,-0.0575
10,RRIRLRPPRLPRPRPRPWVNPRP,-0.271
11,RRIRLRPPRLPRPRPRPWYDPRP,-0.309
12,RRIRLRPPRLPRPRPRPWYYPRP,-0.266
13,RRIRLRPPRLPRPRPRPYADPRP,-0.135
14,RRIRLRPPRLPRPRPRPYCCPRP,-1.03
15,RRIRLRPPRLPRPRPRPYDRPRP,-0.0202
16,RRIRLRPPRLPRPRPRPYEEPRP,-0.274
17,RRIRLRPPRLPRPRPRPYEPPRP,-0.0278
18,RRIRLRPPRLPRPRPRPYFWPRP,-0.0237
19,RRIRLRPPRLPRPRPRPYGHPRP,2.49
20,RRIRLRPPRLPRPRPRPYGMPRP,-0.0242
21,RRIRLRPPRLPRPRPRPYGRPRP,-0.2
22,RRIRLRPPRLPRPRPRPYHEPRP,-1.6
23,RRIRLRPPRLPRPRPRPYHIPRP,-0.713
24,RRIRLRPPRLPRPRPRPYHPPRP,-0.00992
25,RRIRLRPPRLPRPRPRPYHSPRP,-0.018

row,Sequence,shrunken log2 fold change
1,RRIRLRPPRLPRPRPRPYINPRP,-0.584
2,RRIRLRPPRLPRPRPRPYKAPRP,-0.112
3,RRIRLRPPRLPRPRPRPYLGPRP,-0.425
4,RRIRLRPPRLPRPRPRPYMPPRP,-0.509
5,RRIRLRPPRLPRPRPRPYPEPRP,-0.201
6,RRIRLRPPRLPRPRPRPYSAPRP,-0.693
7,RRIRLRPPRLPRPRPRPYSCPRP,-0.458
8,RRIRLRPPRLPRPRPRPYSIPRP,0.0705
9,RRIRLRPPRLPRPRPRPYSRPRP,0.0264
10,RRIRLRPPRLPRPRPRPYTRPRP,-0.0648
11,RRIRLRPPRLPRPRPRPYVMPRP,-0.194
12,RRIRLRPPRLPRPRPRPYVTPRP,-0.169
13,RRIRLRPPRLPRPRPRPYVWPRP,-0.872
14,RRIRLRPPRLPRPRPRPYWEPRP,-0.0613
15,RRIRLRPPRLPRPRPRPYWFPRP,-0.758
16,RRIRLRPPRLPRPRPRPYWVPRP,0.135
17,RRIRLRPPRLPRPRPRPYYWPRP,-0.172
18,RRIRMRPPRLPRPRPRPAAHPRP,0.531
19,RRIRMRPPRLPRPRPRPAARPRP,0.975
20,RRIRMRPPRLPRPRPRPACKPRP,0.484
21,RRIRMRPPRLPRPRPRPAFSPRP,0.0185
22,RRIRMRPPRLPRPRPRPAGQPRP,-0.00902
23,RRIRMRPPRLPRPRPRPAHDPRP,0.673
24,RRIRMRPPRLPRPRPRPAHRPRP,0.444
25,RRIRMRPPRLPRPRPRPAHVPRP,0.176

row,Sequence,shrunken log2 fold change
1,RRIRMRPPRLPRPRPRPAIWPRP,1.36
2,RRIRMRPPRLPRPRPRPAKLPRP,0.441
3,RRIRMRPPRLPRPRPRPAKSPRP,0.261
4,RRIRMRPPRLPRPRPRPALKPRP,1.09
5,RRIRMRPPRLPRPRPRPALRPRP,0.851
6,RRIRMRPPRLPRPRPRPALVPRP,0.327
7,RRIRMRPPRLPRPRPRPAMMPRP,0.59
8,RRIRMRPPRLPRPRPRPAMVPRP,0.501
9,RRIRMRPPRLPRPRPRPAPAPRP,1.53
10,RRIRMRPPRLPRPRPRPAQHPRP,0.0457
11,RRIRMRPPRLPRPRPRPARIPRP,0.56
12,RRIRMRPPRLPRPRPRPASCPRP,0.629
13,RRIRMRPPRLPRPRPRPASEPRP,0.145
14,RRIRMRPPRLPRPRPRPASNPRP,0.421
15,RRIRMRPPRLPRPRPRPASQPRP,0.174
16,RRIRMRPPRLPRPRPRPASRPRP,0.201
17,RRIRMRPPRLPRPRPRPAVFPRP,0.383
18,RRIRMRPPRLPRPRPRPAVTPRP,0.177
19,RRIRMRPPRLPRPRPRPAVVPRP,0.287
20,RRIRMRPPRLPRPRPRPAWIPRP,0.052
21,RRIRMRPPRLPRPRPRPAWRPRP,0.533
22,RRIRMRPPRLPRPRPRPCACPRP,0.0487
23,RRIRMRPPRLPRPRPRPCCTPRP,-0.229
24,RRIRMRPPRLPRPRPRPCDDPRP,0.553
25,RRIRMRPPRLPRPRPRPCDLPRP,0.041

row,Sequence,shrunken log2 fold change
1,RRIRMRPPRLPRPRPRPCEFPRP,0.00328
2,RRIRMRPPRLPRPRPRPCEHPRP,0.249
3,RRIRMRPPRLPRPRPRPCFFPRP,0.16
4,RRIRMRPPRLPRPRPRPCFLPRP,-0.117
5,RRIRMRPPRLPRPRPRPCFNPRP,-0.000544
6,RRIRMRPPRLPRPRPRPCLCPRP,-0.0635
7,RRIRMRPPRLPRPRPRPCLGPRP,0.0639
8,RRIRMRPPRLPRPRPRPCLKPRP,0.12
9,RRIRMRPPRLPRPRPRPCLVPRP,0.0451
10,RRIRMRPPRLPRPRPRPCMIPRP,-0.0212
11,RRIRMRPPRLPRPRPRPCNDPRP,-0.165
12,RRIRMRPPRLPRPRPRPCNSPRP,-0.138
13,RRIRMRPPRLPRPRPRPCPFPRP,-0.241
14,RRIRMRPPRLPRPRPRPCPGPRP,-0.000588
15,RRIRMRPPRLPRPRPRPCQRPRP,0.0132
16,RRIRMRPPRLPRPRPRPCRHPRP,-0.0252
17,RRIRMRPPRLPRPRPRPCRSPRP,0.0369
18,RRIRMRPPRLPRPRPRPCSCPRP,0.183
19,RRIRMRPPRLPRPRPRPCTEPRP,-0.0649
20,RRIRMRPPRLPRPRPRPCTFPRP,-0.209
21,RRIRMRPPRLPRPRPRPCYCPRP,-0.289
22,RRIRMRPPRLPRPRPRPCYNPRP,-0.247
23,RRIRMRPPRLPRPRPRPDAFPRP,1.47
24,RRIRMRPPRLPRPRPRPDAWPRP,2.59
25,RRIRMRPPRLPRPRPRPDCDPRP,0.0709

row,Sequence,shrunken log2 fold change
1,RRIRMRPPRLPRPRPRPDCGPRP,-0.167
2,RRIRMRPPRLPRPRPRPDDIPRP,-0.00151
3,RRIRMRPPRLPRPRPRPDDTPRP,2.17
4,RRIRMRPPRLPRPRPRPDEEPRP,2.97
5,RRIRMRPPRLPRPRPRPDEIPRP,2.86
6,RRIRMRPPRLPRPRPRPDEPPRP,2.72
7,RRIRMRPPRLPRPRPRPDEQPRP,0.0522
8,RRIRMRPPRLPRPRPRPDFDPRP,0.15
9,RRIRMRPPRLPRPRPRPDFPPRP,-0.0976
10,RRIRMRPPRLPRPRPRPDHKPRP,0.0228
11,RRIRMRPPRLPRPRPRPDIHPRP,0.335
12,RRIRMRPPRLPRPRPRPDKSPRP,0.283
13,RRIRMRPPRLPRPRPRPDKWPRP,0.934
14,RRIRMRPPRLPRPRPRPDMHPRP,1.15
15,RRIRMRPPRLPRPRPRPDNAPRP,-0.267
16,RRIRMRPPRLPRPRPRPDNKPRP,-0.336
17,RRIRMRPPRLPRPRPRPDNYPRP,-0.0552
18,RRIRMRPPRLPRPRPRPDPQPRP,0.593
19,RRIRMRPPRLPRPRPRPDPWPRP,0.336
20,RRIRMRPPRLPRPRPRPDQTPRP,0.0101
21,RRIRMRPPRLPRPRPRPDRPPRP,0.107
22,RRIRMRPPRLPRPRPRPDRVPRP,0.0719
23,RRIRMRPPRLPRPRPRPDSTPRP,1.09
24,RRIRMRPPRLPRPRPRPDWEPRP,0.382
25,RRIRMRPPRLPRPRPRPDYQPRP,-0.304
